One assay concerns K9 cells. The assay is described as follows: Adhesion of K9 cells to selected matrix constituents (FIG. 1). Type of assay: cell-based, human. The following applies: 5 μg/ml coating, 1 hour at 37° C., 50,000 cells/well seeded. Here is the method: Human cells (K9) originating from a human chondrosarcoma were a kind gift from Drs. Sven Inerot and Anders Lindahl, The Salgrenska University Hospital Gothenburg, Sweden. The K9 cells were cultured in Dulbeccos Modified Eagle Medium: Nutrient Mixture F12 (DMEM/F12 1:1) with GLUTAMAX I, supplemented with 10% fetal calf serum, 25 μg/ml ascorbic acid, 50 IU of penicillin and 50 μg/ml streptomycin (Life Technologies, Inc.). A different human cells line (K105) originating from a human chondrosarcoma was a kind gift from Dr. Sven Inerot, The Salgrenska University Hospital, Gothenburg, Sweden. […]
To test cell binding, the chondrosarcoma cells or bovine chondrocytes were suspended in PBS containing 0.1% BSA, 25 U/ml collagenase and added to the wells (50,000/well), in the absence or presence of various peptide pools or the synthetic peptides (200, 100, 50, 25, 12.5 μg/ml). Non-adherent cells were removed after 1 hour and adhesion was determined by measuring lysosomal N-acetylglucosaminidase (12). […]
48-well tissue culture dishes were coated with 5 μg/ml collagen type II, tissue extracted bovine chondroadherin, human chondroadherin expressed in EBNA cells and human chondroadherin expressed in E. coli and blocked for non-specific binding with BSA. […] Nonadherent cells were removed by washing and adhesion was determined by analyzing lysosomal N-acetylglucosaminidase. […]

Assay [1] is described as follows: Heparin binding on Heparin-Sepharose. Conditions: eluted with NaCl (0.5, 1, 2M), Western blot or MALDI-TOF MS. Here is the method: Intact recombinant protein (10 μg, EBNA-cell expressed) diluted in PBS was passed over Heparin-Sepharose (Amersham Pharmacia) (1 ml), washed with 20 volumes of PBS and eluted with 2 M NaCl (6×1 ml). Eluted material was precipitated with ethanol, separated by SDS-PAGE (10%) and visualized by western blot (CHAD ab α-80, Larsson et al). The peptide CKFPTKRSKKAGRH (SEQ ID No:7) was diluted in PBS and passed over heparin-sepharose (100 μl), the column was washed with 20 volumes PBS and bound material eluted with 0.5, 1, and 2M NaCl (3 column volumes of each).
Recombinant chondroadherin (10 or 100 μg) expressed in EBNA-cells was passed over Heparin-Sepharose-column (Pharmacia). The column was washed and eluted with 2M NaCl in PBS. Eluted material was separated on SDS-PAGE (10%) and detected by western blot using a chondroadherin antibody (see FIG. 4). The band at 36 kDa represents chondroadherin ant the band at 72 kDa represents a dimer of chondroadherin.
The candidate peptide CKFPTKRSKKAGRH (SEQ ID No: 7) was synthesized. The ability of the peptide to bind heparin was confirmed on heparin-sepharose, where material eluted with 0.5, 1 and 2M NaCl was identified by MALDI-TOF MS (data not shown).
On the technique in general: Immunoblotting shows a protein as a band on a membrane.

The next assay deals with T1, Syndecan 3 (Homo sapiens, UniProt O75056).
T1 construct: endogenous in cells; host or cells: human chondrosarcoma cells K105 (membrane fraction, surface-biotinylated)
The assay is described as follows: Affinity purification of K105 membrane proteoglycans on chondroadherin-agarose and immunoprecipitation with pan-syndecan antibody. Type of assay: binding. Conditions: eluted with 0.5 M NaCl, after heparitinase. Here is the method:
Recombinant chondroadherin (2.5 mg expressed in EBNA-cells per ml agarose) was coupled to Mini-Leak agarose (Kem En Tec, A/S, Denmark) according to the manufacturer's instructions. The control agarose was treated in the same manner but with no protein added.
Human chondrosarcoma cells (k105) suspended in PBS were incubated with EZ-link sulfo NHS-LC biotin (Pierce Chemical Co) at a final concentration of 1 mg/ml for 1 hour at room temperature. The cells were incubated for 10 minutes in 0.1 M glycine in PBS to block free biotin, washed three times in PBS and then resuspended and homogenized in 10 mM KCl, 20 mM Tris/HCl, pH 7.4, 1 mM EDTA (1 ml/10^6 cells). Nuclei were removed by centrifugation at 1,500 g for 5 minutes, 0.15 M NaCl was added to the supernatant and the membrane fraction was collected by centrifugation at 50,000 g for 30 minutes. The pellet was suspended in 2 ml 8 M UREA, 2% […] in TBS pH 7.4 supplemented with COMPLET® protease inhibitor (Roche). The lysate was cleared by centrifugation at 14,000 g for 20 min. […]
Cell surface proteins on human chondrosarcoma cells (K105) were biotin labeled and affinity purified on chondroadherin-agarose in urea. Bound material was eluted with 0.5 M NaCl, separated on SDS-PAGE (4-12%) and detected by Western blot before or after heparitinase and chondroitinase ABC treatment. […]

T1 sequence (O75056 whole entry): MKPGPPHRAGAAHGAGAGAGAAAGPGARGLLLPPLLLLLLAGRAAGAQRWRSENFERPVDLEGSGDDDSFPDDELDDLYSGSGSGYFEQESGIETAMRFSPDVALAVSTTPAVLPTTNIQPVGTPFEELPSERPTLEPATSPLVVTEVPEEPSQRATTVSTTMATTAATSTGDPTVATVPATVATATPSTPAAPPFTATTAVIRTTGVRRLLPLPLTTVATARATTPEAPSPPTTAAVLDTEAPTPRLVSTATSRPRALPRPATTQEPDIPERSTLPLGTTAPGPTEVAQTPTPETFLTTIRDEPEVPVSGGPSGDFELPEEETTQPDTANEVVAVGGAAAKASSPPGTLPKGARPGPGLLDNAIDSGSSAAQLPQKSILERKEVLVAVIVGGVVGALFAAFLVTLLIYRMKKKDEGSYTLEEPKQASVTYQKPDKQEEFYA

B1: Chondroadherin (protein)
chain: ACPQNCHCHSDLQHVICDKVGLQKIPKVSEKTKLLNLQRNNFPVLAANSFRAMPNLVSLHLQHCQIREVAAGAFRGLKQLIYLYLSHNDIRVLRAGAFDDLTELTYLYLDHNKVTELPRGLLSPLVNLFILQLNNNKIRELRAGRFQGAKDLRWLYLSENALSSLQPGALDDVENLAKFHVDRNQLSSYPSAALSKLRVVEELKLSHNPLKSIPDNAFQSFGRYLETLWLDNTNLEKFSDGAFLGVTTLKHVHLENNRLNQLPSNFPFDSLETLALTNNPWKCTCQLRGLRRWLEAKASRPDATCASPAKFKGQHIRDTDAFRSCKFPTKRSKKAGRH
modifications: homo sapiens
notes: leucine-rich cartilage matrix protein, 338 amino acids; human recombinant, expressed in EBNA cells or E. coli
Regarding B1, the “adhesion of K9 cells to coated substrate (number of cells)” value with K9 cells is reported as “virtually identical to that of the bacterially expressed”. Moreover, the figures for the binding to heparin-sepharose entry in assay [1] and in assay [1] (listed as Recombinant chondroadherin) were “bind to the heparin-sepharose” and “bind heparin”, respectively. The “K105 membrane component bound to chondroadherin” value with Syndecan 3 is reported as “Syndecan 3”.

Source of the values: patent publication US8158577B2, “Modulation of cartilage homeostasis by active domains of cell binding extracellular matrix molecules” (priority 2004, dated 2012).
